Test results from PMC1616947 (Nucleic Acids Research, 2006).

Biological target: the molecule itself
Experiment: SEC + AUC

B1: MutLΔC20 deletion mutant (domain or fragment, Escherichia coli, UniProt P23367 1-595, looked up)
chain: MPIQVLPPQLANQIAAGEVVERPASVVKELVENSLDAGATRIDIDIERGGAKLIRIRDNGCGIKKDELALALARHATSKIASLDDLEAIISLGFRGEALASISSVSRLTLTSRTAEQQEAWQAYAEGRDMNVTVKPAAHPVGTTLEVLDLFYNTPARRKFLRTEKTEFNHIDEIIRRIALARFDVTINLSHNGKIVRQYRAVPEGGQKERRLGAICGTAFLEQALAIEWQHGDLTLRGWVADPNHTTPALAEIQYCYVNGRMMRDRLINHAIRQACEDKLGADQQPAFVLYLEIDPHQVDVNVHPAKHEVRFHQSRLVHDFIYQGVLSVLQQQLETPLPLDDEPQPAPRSIPENRVAAGRNHFAEPAAREPVAPRYTPAPASGSRPAAPWPNAQPGYQKQQGEVYRQLLQTPAPMQKLKAPEPQEPALAANSQSFGRVLTIVHSDCALLERDGNISLLSLPVAERWLRQAQLTPGEAPVCAQPLLIPLRLKVSAEEKSALEKAQSALAELGIDFQSDAQHVTIRAVPLPLRQQNLQILIPELIGYLAKQSVFEPGNIAQWIARNLMSEHAQWSMAQAITLLADVERLCPQLVKTP
  stoichiometry N: 2
